Test results reported in article PMC3458870 (PLoS ONE, 2012).

Target: the molecule itself
Experiment: SEC

B1: truncated form of human PAH including the catalytic domain, hPAH(Gly103-Gln428) (domain or fragment)
chain: GATVHELSRDKKKDTVPWFPRTIQELDRFANQILSYGAELDADHPGFKDPVYRARRKQFADIAYNYRHGQPIPRVEYMEEEKKTWGTVFKTLKSLYKTHACYEYNHIFPLLEKYCGFHEDNIPQLEDVSQFLQTCTGFRLRPVAGLLSSRDFLGGLAFRVFHCTQYIRHGSKPMYTPEPDICHELLGHVPLFSDRSFAQFSQEIGLASLGAPDEYIEKLATIYWFTVEFGLCKQGDSIKAYGAGLLSSFGELQYCLSEKPKLLPLELEKTAIQNYTVTEFQPLYYVAESFNDAKEKVRNFAATIPRPFSVRYDPYTQRIEVLDNTQ
  stoichiometry N: 2
